Reference: patent publication US20090088376A1, “DENDRIMER BASED COMPOSITIONS AND METHODS OF USING THE SAME” (priority 2007, published 2009)

System: A431 cells
Test: Binding of dendrimer-EGF conjugate by flow cytometry
Format: cell-based
Description: Cell culture and treatment. The cell lines were cultured in Dulbecco's Modified Eagle Medium (DMEM) supplemented with 10% fetal calf serum (FCS), 100 units/ml penicillin, and 100 μg/ml streptomycin. Cells were allowed to grow in a monolayer in tissue culture flasks incubated at 37° C. in a humidified atmosphere containing 5% CO2 and 95% air. Cells plated in 24-well plates (for flow cytometry), 35 mm dishes with glass cover slips in the bottom (for confocal microscopy) and 96 well plates (for ‘FACE’ and ‘XTT’ assays) were treated with the conjugate under the specified incubation conditions. Excess free EGF was added 30 min prior to the conjugates for blocking the binding of the latter. Competition assay with free EGF was conducted at 4° C. by simultaneously exposing the conjugate and free EGF.
Flow Cytometry and Confocal Microscopy. The FITC fluorescence was quantified on a f a BECKMAN-COULTER EPICS-XL MCL flow cytometer, and the data were analyzed using EXPO32 software (BECKMAN-COULTER, Miami, Fla.). The viable cells were gated, and the mean FL1-fluorescence of 10,000 cells was quantified. […] Cells were incubated with the conjugate in serum-free medium under the specified conditions and analyzed using an OLYMPUS FLUOVIEW 500 laser scanning confocal microscope. FITC fluorescence was excited with a 488 nm blue argon laser and emission was measured through a 505-525 nm barrier filter. […]

B1: EGF-FI (conjugate, UniProt P01133 23-1207, looked up)
Pro-epidermal growth factor: PQHWSCPEGTLAGNGNSTCVGPAPFLIFSHGNSIFRIDTEGTNYEQLVVDAGVSVIMDFHYNEKRIYWVDLERQLLQRVFLNGSRQERVCNIEKNVSGMAINWINEEVIWSNQQEGIITVTDMKGNNSHILLSALKYPANVAVDPVERFIFWSSEVAGSLYRADLDGVGVKALLETSEKITAVSLDVLDKRLFWIQYNREGSNSLICSCDYDGGSVHISKHPTQHNLFAMSLFGDRIFYSTWKMKTIWIANKHTGKDMVRINLHSSFVPLGELKVVHPLAQPKAEDDTWEPEQKLCKLRKGNCSSTVCGQDLQSHLCMCAEGYALSRDRKYCEDVNECAFWNHGCTLGCKNTPGSYYCTCPVGFVLLPDGKRCHQLVSCPRNVSECSHDCVLTSEGPLCFCPEGSVLERDGKTCSGCSSPDNGGCSQLCVPLSPVSWECDCFPGYDLQLDEKSCAASGPQPFLLFANSQDIRHMHFDGTDYGTLLSQQMGMVYALDHDPVENKIYFAHTALKWIERANMDGSQRERLIEEGVDVPEGLAVDWIGRRFYWTDRGKSLIGRSDLNGKRSKIITKENISQPRGIAVHPMAKRLFWTDTGINPRIESSSLQGLGRLVIASSDLIWPSGITIDFLTDKLYWCDAKQSVIEMANLDGSKRRRLTQNDVGHPFAVAVFEDYVWFSDWAMPSVMRVNKRTGKDRVRLQGSMLKPSSLVVVHPLAKPGADPCLYQNGGCEHICKKRLGTAWCSCREGFMKASDGKTCLALDGHQLLAGGEVDLKNQVTPLDILSKTRVSEDNITESQHMLVAEIMVSDQDDCAPVGCSMYARCISEGEDATCQCLKGFAGDGKLCSDIDECEMGVPVCPPASSKCINTEGGYVCRCSEGYQGDGIHCLDIDECQLGEHSCGENASCTNTEGGYTCMCAGRLSEPGLICPDSTPPPHLREDDHHYSVRNSDSECPLSHDGYCLHDGVCMYIEALDKYACNCVVGYIGERCQYRDLKWWELRHAGHGQQQKVIVVAVCVVVLVMLLLLSLWGAHYYRTQKLLSKNPKNPYEESSRDVRSRRPADTEDGMSSCPQPWFVVIKEHQDLKNGGQPVAGEDGQAADGSMQPTSWRQEPQLCGMGTEQGCWIPVSSDKGSCPQVMERSFHMPSYGTQTLEGGVEKPHSLLSANPLWQQRALDPPHQMELTQ
modifications: Pro-epidermal growth factor fluorescein label
B1 was tested, and the IC50 (100 nM conjugate, 1 h at 4° C., value listed under the conjugate displaced, read-out: concentration of free EGF giving 50% inhibition of binding of the labeled conjugate) was 60 nM and the “apparent KA” value (double reciprocal binding plots of normalized fluorescence) was 15 nM.
